{"source": "paper PMC5518672", "about": "(Nature structural & molecular biology, 2013)", "key": {"SEC-MALS": {"target": "the molecule itself", "assay": "SEC-MALS"}, "SEC [1]": {"target": "the molecule itself", "assay": "SEC"}, "SEC [2]": {"target": "the molecule itself", "assay": "SEC", "remark": "listed apart in the source"}}}
{"protein": "recombinant full-length Aplysia CPEB (His6-CPEB fusion protein) (natural protein) not shown", "values": [{"measurement": "stoichiometry N", "setting": "SEC-MALS", "value": 3}, {"measurement": "stoichiometry N", "setting": "SEC [1]", "value": "≥ 10"}, {"measurement": "stoichiometry N", "setting": "SEC [2]", "value": "> 10"}]}
